The values below come from patent US20260234261A1 (published 2026).

Where two headings read alike, the source gives them in different places.

Test in all cases: FACS binding
A general note: Flow cytometry measures light scatter and fluorescence of single cells or particles in a stream.

In assay [1] the target is T1, human CTLA4 and human CCR8 co-expressed on CHOS-hCTLA4/hCCR8 double-positive cells (human, UniProt P16410 36-223; P51685 1-355).
Assay [2] concerns the target T1, human CTLA4 and human CCR8 co-expressed …. The source holds these as a separate data set.
Assay [3] concerns the target T2, human CTLA4 (overexpressed on CHOS-hCTLA4 cells) (human, UniProt P16410 36-223).
Assay [4] deals with T3, human CCR8 (overexpressed on CHOS-hCCR8 cells) (human, UniProt P51685 1-355).
Assay [5] concerns the target T1, human CTLA4 and human CCR8 co-expressed …. This is another data set of the same source.
For assay [6], the target named is T2, human CTLA4 (overexpressed on …). This is another data set of the same source.
In assay [7] the target is T3, human CCR8 (overexpressed on CHOS-hCCR8 …). This is another data set of the same source.
Assay [8] has the same target. The source holds these as a separate data set.
For assay [9], the target named is T1, human CTLA4 and human CCR8 co-expressed …. This is another data set of the same source.
For assay [10], the target named is T2, human CTLA4 (overexpressed on …). This is another data set of the same source.
In assay [11] the target is T3, human CCR8 (overexpressed on CHOS-hCCR8 …). The source holds these as a separate data set.

T2 sequence (P16410 36-223): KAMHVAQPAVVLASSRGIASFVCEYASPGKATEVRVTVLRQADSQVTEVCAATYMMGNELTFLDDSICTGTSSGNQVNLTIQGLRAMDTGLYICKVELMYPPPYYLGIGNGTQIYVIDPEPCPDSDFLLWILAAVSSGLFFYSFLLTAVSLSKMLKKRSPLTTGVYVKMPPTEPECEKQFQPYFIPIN
T1 sequence (P16410 36-223, chain 1 of 2): as the sequence (P16410 36-223) above
T1 sequence (P51685 whole entry, chain 2 of 2): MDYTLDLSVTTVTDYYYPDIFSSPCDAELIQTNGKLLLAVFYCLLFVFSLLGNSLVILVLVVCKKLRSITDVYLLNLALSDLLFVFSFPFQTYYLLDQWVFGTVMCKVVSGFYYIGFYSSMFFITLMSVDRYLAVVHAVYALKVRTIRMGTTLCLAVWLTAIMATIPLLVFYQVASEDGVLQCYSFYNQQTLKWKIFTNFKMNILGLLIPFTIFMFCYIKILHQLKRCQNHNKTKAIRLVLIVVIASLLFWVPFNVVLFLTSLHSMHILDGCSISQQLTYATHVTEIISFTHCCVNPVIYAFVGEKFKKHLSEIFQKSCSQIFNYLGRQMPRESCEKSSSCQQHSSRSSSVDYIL
T3 sequence (P51685 whole entry): as the sequence (P51685 whole entry, chain 2 of 2) above

B1: Anti-CTLA4(ip-0508) (antibody, V domains shown)
VH: EVQLVESGGGVVQPGRSLRLSCAASGFTFSSYTMHWVRQAPGKGLEWVTFISEDGNNKYYADSVKGRFTISRDNSKNTLYLQMNSLRAEDTAIYYCARTGWLGPEDYWGQGTLVTVSS
VL: not shown
What is called EC50 is the midpoint of the concentration-response curve. Molecule B1 displayed an EC50 in assay [1] of 361 nM.

B2: Anti-CTLA4(ip-05)-1 Afu (antibody, V domains shown)
VH: EVQLVESGGGVVQPGRSLRLSCAASGFTFSSYTMHWVRQAPGKGLEWVTFISEDGNNKYYADSVKGRFTISRDNSKNTLYLQMNSLRAEDTAIYYCARTGWLGPFDYWGQGTLVTVSS
VL: not shown
B2: the values for the EC50 in assay [2], in [3] and in [4] were 98.2 nM, 3.98 nM and 51.7 nM, respectively.

B3: Anti-CTLA4(ip-05)-1 (antibody, V domains shown)
VH: EVQLVESGGGVVQPGRSLRLSCAASGFTFSSYTMHWVRQAPGKGLEWVTFISEDGNNKYYADSVKGRFTISRDNSKNTLYLQMNSLRAEDTAIYYCARTGWLGPFDYWGQGTLVTVSS
VL: not shown
With B3, the values for the EC50 in assay [5] and in assay [6] were 11.8 nM and 3.6 nM, respectively.

B4: Anti-CCR8(ADI68741-R2-21-DA)-Afu (antibody, V domains shown)
VH: EVQLVQSGAEVKKPGASVKVSCKASGYTFTSYYMHWVRQAPGQGLEWMGIINPMTGSASHAQKFQGRVTMTRDTSTSTVYMELSSLRSEDTAVYYCVRDAAARHKYFAFWGRGTLVTVSS
VL: EIVLTQSPATLSLSPGERATLSCRASQSVSSYLAWYQQKPGQAPRLLIYDASNRATGIPARFSGSGSGTDFTLTISSLEPEDFAVYYCQQYSAWPLTFGGGTKVEIKR
Regarding B4, in assay [2], the EC50 came to 22.2 nM.

B5: Anti-CCR8(ADI68741)-1 Afu (antibody, V domains shown)
VH: EVQLVQSGAEVKKPGASVKVSCKASGYTFTSYYMHWVRQAPGQGLEWMGIINPGTGSTSHAQKFQGRVTMTRDTSTSTVYMELSSLRSEDTAVYYCARDGAFRHKYFDLWGRGTLVTVSS
VL: EIVLTQSPATLSLSPGERATLSCRASQSVSSYLAWYQQKPGQAPRLLIYDASNRATGIPARFSGSGSGTDFTLTISSLEPEDFAVYYCQQYSAWPLTFGGGTKVEIKR
B5: the midpoint of the response in assay [2], the EC50, lay at 0.595 nM.

B6: Anti-CCR8(ADI68741)-1 (antibody, V domains shown)
VH: EVQLVQSGAEVKKPGASVKVSCKASGYTFTSYYMHWVRQAPGQGLEWMGIINPGTGSTSHAQKFQGRVTMTRDTSTSTVYMELSSLRSEDTAVYYCARDGAFRHKYFDLWGRGTLVTVSS
VL: EIVLTQSPATLSLSPGERATLSCRASQSVSSYLAWYQQKPGQAPRLLIYDASNRATGIPARFSGSGSGTDFTLTISSLEPEDFAVYYCQQYSAWPLTFGGGTKVEIKR
For B6, the EC50 in assay [1] was 0.194 nM; in assay [7] it was 0.215 nM; in assay [5] it was 0.351 nM; in [8], 0.743 nM.

B7: Anti-CTLA4(ip-05)×CCR8-6 (bispecific antibody)
heavy 1: not shown
light 1: not shown
heavy 2: not shown
light 2: EIVLTQSPATLSLSPGERATLSCRASQSVSSYLAWYQQKPGQAPRLLIYDASNRATGIPARFSGSGSGTDFTLTISSLEPEDFAVYYCQQYSAWPLTFGGGTKVEIKRTVAAPSVFIFPPSDEELKSGTASVQCLLNNFYPREAKVQWKVDNALQSGNSQESVTEQDSKDSTYSLSSELTLSKADYEKHKVYACEVTHQGLSSPVTKSFNRGEC
In the case of B7, the values for the EC50 in assay [9], in assay [10] and in [11] were 11.3 nM, 28.2 nM and 6.55 nM, respectively.

B8: Anti-CTLA4(ip-05)×CCR8-4 (bispecific antibody)
heavy 1: not shown
light 1: not shown
heavy 2: not shown
light 2: EIVLTQSPATLSLSPGERATLSCRASQSVSSYLAWYQQKPGQAPRLLIYDASNRATGIPARFSGSGSGTDFTLTISSLEPEDFAVYYCQQYSAWPLTFGGGTKVEIKRTVAAPSVFIFPPSDEQLKSGRASVVCLLNNFYPREAKVQWKVDNALQSGNSQESVTEQDSKDSTYSLSSRLQLSKADYEKHKVYACEVTHQGLSSPVTKSFNRGEC
In the case of B8, the EC50 is 20.8 nM in assay [9], 77.4 nM in assay [10] and 43.9 nM in [11].

B9: ONC-392 Analog (antibody, V domains shown)
VH: QVQLQESGPGLVKPSETLSLTCTVSGFSLTSYGLSWIRQPPGKGLEWIGYIWYDGNTNFHSPLKSRVTISVDTSKNQFSLKLSSVTAADTAVYYCAKTEGHYYGSNYGYYALDYWGQGTLVTVSS
VL: DIQMTQSPSSLSASVGDRVTITCRASENIYSNLAWYQQKQGKAPKLLLYAATNLQDGVPSRFSGSGSGTDYTLTISSLQPEDFATYFCQHLWGTPYTFGQGTKLEIKR
As for B9, the EC50 in assay [2] stood at 0.623 nM; in assay [3] it was 0.521 nM.
